The labels stand for the following.
T1: Purified TRB3 protein (purchased from RD) (UniProt Q96RU7 1-358, limits assumed)
T1 construct: Amine-coupled to the Biacore chip; also called Tribbles Homologue 3
T1 sequence (looked up): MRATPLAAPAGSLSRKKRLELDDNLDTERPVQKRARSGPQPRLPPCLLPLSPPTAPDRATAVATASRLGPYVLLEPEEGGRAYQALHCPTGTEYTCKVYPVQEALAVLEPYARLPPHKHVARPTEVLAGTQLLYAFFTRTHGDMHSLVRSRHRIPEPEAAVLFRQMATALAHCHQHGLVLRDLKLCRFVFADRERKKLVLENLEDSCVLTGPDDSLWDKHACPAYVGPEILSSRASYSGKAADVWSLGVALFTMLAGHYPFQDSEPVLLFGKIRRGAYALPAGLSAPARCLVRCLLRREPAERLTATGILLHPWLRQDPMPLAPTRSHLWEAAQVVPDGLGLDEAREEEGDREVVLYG

B1: polypeptide MR2 (peptide)
peptide: HLMACFTCAKKLKKR
notes: Synthetic unmodified 15-mer; also called MR2 polypeptide

Drawing on patent US20210179680A1, “POLYPEPTIDE, DERIVATIVES THEREOF, AND APPLICATION THEREOF IN PREPARATION OF DRUGS HAVING RESISTANCE TO PULMONARY FIBROSIS” (priority 2016, published 2021), this text covers Kd for 12 molecules.

Bridge positions count the residues as written; N and C are the ends. Square brackets hold non-standard residues; d marks the D form. Ends that are not written are not given here. S5 = C=CCCC[C@](C)(N)C(=O)O

The experiment addresses T1, Purified TRB3 protein (purchased from …). Nature of the experiment: SPR, Biacore T200, TRB3 amine-coupled to chip, peptide as analyte, 25° C. The method, then: The surface plasmon resonance experiment was carried out in a surface plasmon resonator Biacore T200, and the procedure was carried out in accordance with the instructions of the plasma resonator Biacore T200. Specific steps are as follows:
1. Purified TRB3 protein (purchased from RD) was coupled to a CMS chip (purchased from GE) by amidogen, and the unbound protein was eluted at a flow rate of 10 μL/min. The surface of the chip was equilibrated for 2 hours. Among them, the specific steps of amidogen coupling, elution and equilibration refer to the relevant instruction of GE's CMS chip.
2. […] The buffer used was HBS-EP buffer [0.01 M HEPES, 0.15 M NaCl, 3 mM EDTA and 0.005% (w/w) surfactant TWEEN20]. Biacore T200's built-in analysis software was used to simulate the binding curves of different concentrations of peptides to TRB3. FIG. 4-1, 4-2 and Table 1 illustrate that peptides MR2, S1, S2, S3, S4, S5, S6, S7, S8, S9, S10 and S11 can all interacted with the TRB3 protein.
Background: In SPR one partner is held on a chip, and binding of the other changes the refractive index at the surface.
With HLMACFT[S5]AKK[S5]KKR (staple 8-12, Stapled variant of MR2) [polypeptide S8], the Kd – broadly, the free concentration of one partner at which half of the binding sites on the other are occupied at equilibrium, for simple one-to-one binding – amounted to 35.9 nM.

With HLMACFTC[S5]KKL[S5]KR (staple 9-13; cysteine pairing not given here, Stapled variant of MR2) [polypeptide S9], the affinity, expressed as Kd, was 37.1 nM. This Kd and that of the molecule before are within 1.5-fold of each other.

Take B1: the Kd is 43.3 nM.

For HLMACFTCA[S5]KLK[S5]R (staple 10-14; cysteine pairing not given here, Stapled variant of MR2) [polypeptide S10], the Kd turned out to be 29.3 nM.

For the molecule HLMA[S5]FTC[S5]KKLKKR (staple 5-9, Stapled variant of MR2) [polypeptide S5], the Kd was 11.5 nM.

For the molecule HLMACFTCAK[S5]LKK[S5] (staple 11-15; cysteine pairing not given here, Stapled variant of MR2) [polypeptide S11], the Kd was 37.7 nM.

For H[S5]MAC[S5]TCAKKLKKR (staple 2-6; cysteine pairing not given here, Stapled variant of MR2) [polypeptide S2], binding was put at a Kd of 19.1 nM.

Molecule HLMAC[S5]TCA[S5]KLKKR (staple 6-10; cysteine pairing not given here, Stapled variant of MR2) [polypeptide S6] registered a Kd of 49.6 nM.

In turn, HLMACF[S5]CAK[S5]LKKR (staple 7-11; cysteine pairing not given here, Stapled variant of MR2) [polypeptide S7] displayed a Kd of 8.95 nM. This Kd is about 5.5-fold lower than that of the molecule before.

[S5]LMA[S5]FTCAKKLKKR (staple 1-5, Stapled variant of MR2) [polypeptide S1] showed a Kd of 20.2 nM.

For the molecule HL[S5]ACF[S5]CAKKLKKR (staple 3-7; cysteine pairing not given here, Stapled variant of MR2) [polypeptide S3], the Kd worked out at 42.7 nM.

HLM[S5]CFT[S5]AKKLKKR (staple 4-8, Stapled variant of MR2) [polypeptide S4] gave a Kd of 9.63 nM.
